Measured values from patent US20120225828A1 (PALATIN TECHNOLOGIES, published 2012).
Values belong to the binder of their own block, whether it stands above or below them. Bridge positions count the residues as written; N and C are the ends. Square brackets hold non-standard residues; d marks the D form. dPhe(4-Me) = Cc1ccc(C[C@@H](N)C(=O)O)cc1; 1Nal = N[C@@H](Cc1cccc2ccccc12)C(=O)O; 2Nal = N[C@@H](Cc1ccc2ccccc2c1)C(=O)O; d1Nal = N[C@H](Cc1cccc2ccccc12)C(=O)O; d2Nal = N[C@H](Cc1ccc2ccccc2c1)C(=O)O; Cit = NC(=O)NCCC[C@H](N)C(=O)O; Nle = CCCC[C@H](N)C(=O)O; Orn = NCCC[C@H](N)C(=O)O; Dab = NCC[C@H](N)C(=O)O; Dap = NC[C@H](N)C(=O)O

Target: human melanocortin-1 receptor hMCR-1 expressed by the human melanoma cell line HBL (human, UniProt Q01726 1-317)
Assay: cell-based or functional assay

Sequence of human melanocortin-1 receptor hMCR-1 expressed by the human melanoma cell line HBL (Q01726 whole entry): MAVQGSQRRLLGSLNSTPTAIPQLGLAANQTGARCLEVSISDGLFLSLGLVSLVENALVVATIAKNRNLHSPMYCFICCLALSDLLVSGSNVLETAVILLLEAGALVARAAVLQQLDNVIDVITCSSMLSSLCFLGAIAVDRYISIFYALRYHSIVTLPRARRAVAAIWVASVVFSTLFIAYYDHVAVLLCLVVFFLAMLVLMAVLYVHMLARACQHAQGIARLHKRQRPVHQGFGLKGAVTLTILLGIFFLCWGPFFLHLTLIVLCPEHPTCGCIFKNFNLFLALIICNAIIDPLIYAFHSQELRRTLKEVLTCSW

Binder: Ac-[dF]EH[dF]R[Dab]W-NH2 (lactam 2-6) [Ac-D-Phe-cyclo(Glu-His-D-Phe-Arg-Dab)-Trp-NH2]
- MC-1 Emax (average; cAMP HBL): 75%

B3: Ac-Nle-cyclo(Glu-His-D-Phe-Ala-Dab)-NH2 (SEQ ID NO: 48) (peptide)
peptide: Ac-[Nle]EH[dF]A[Dab]-NH2
modifications: lactam 2-6
SMILES: CCCC[C@H](NC(C)=O)C(=O)N[C@H]1CCC(=O)NCC[C@@H](C(N)=O)NC(=O)[C@H](C)NC(=O)[C@@H](Cc2ccccc2)NC(=O)[C@H](Cc2c[nH]cn2)NC1=O
- MC-1 EC50 (average; cAMP HBL): 44000 pM
- MC-1 Emax (average; cAMP HBL): 73%

B4: Ac-Nle-cyclo(Glu-His-D-Phe-Ala-Dab)-Trp-NH2 (peptide)
peptide: Ac-[Nle]EH[dF]A[Dab]W-NH2
modifications: lactam 2-6
SMILES: CCCC[C@H](NC(C)=O)C(=O)N[C@H]1CCC(=O)NCC[C@@H](C(=O)N[C@@H](Cc2c[nH]c3ccccc23)C(N)=O)NC(=O)[C@H](C)NC(=O)[C@@H](Cc2ccccc2)NC(=O)[C@H](Cc2c[nH]cn2)NC1=O
- MC-1 EC50 (average; cAMP HBL): 115 pM
- MC-1 Emax (average; cAMP HBL): 72%

Binder: Ac-[Nle]EH[dF]R[Dab][d1Nal]-NH2 (lactam 2-6) [Ac-Nle-cyclo(Glu-His-D-Phe-Arg-Dab)-D-Nal 1-NH2]
- MC-1 Emax (average; cAMP HBL): 73%

Binder: Ac-[Nle]ER[dF]R[Dab]W-NH2 (lactam 2-6) [Ac-Nle-cyclo(Glu-Arg-D-Phe-Arg-Dab)-Trp-NH2]
- MC-1 Emax (average; cAMP HBL): 100%

Binder: Ac-[Nle][Dap]H[dF]R[Dap]W-NH2 (linker 2-6 via C(:O)‑(CH2)2‑C(:O)) [Ac-Nle-cyclo(Dap-His-D-Phe-Arg-Dap)-Trp-NH2 with bridge C(═O)-(CH2)2-C(═O)]
- MC-1 EC50 (average; cAMP HBL): 7 pM
- MC-1 Emax (average; cAMP HBL): 70%

Binder: Ac-[Nle]E[Cit][dF]R[Dab]W-NH2 (lactam 2-6) [Ac-Nle-cyclo(Glu-Cit-D-Phe-Arg-Dab)-Trp-NH2]
- MC-1 Emax (average; cAMP HBL): 97%

Binder: Ac-[Nle]E[Dab][dF]R[Dab]W-NH2 (lactam 2-6) [Ac-Nle-cyclo(Glu-Dab-D-Phe-Arg-Dab)-Trp-NH2]
- MC-1 Emax (average; cAMP HBL): 108%

B8: Ac-Nle-cyclo(Glu-His-D-Phe-Arg-Dab)-Lys-NH2 (peptide)
peptide: Ac-[Nle]EH[dF]R[Dab]K-NH2
modifications: lactam 2-6
SMILES: CCCC[C@H](NC(C)=O)C(=O)N[C@H]1CCC(=O)NCC[C@@H](C(=O)N[C@@H](CCCCN)C(N)=O)NC(=O)[C@H](CCCNC(=N)N)NC(=O)[C@@H](Cc2ccccc2)NC(=O)[C@H](Cc2c[nH]cn2)NC1=O
- MC-1 EC50 (average; cAMP HBL): 175 pM
- MC-1 Emax (average; cAMP HBL): 91%

B9: Ac-Nle-cyclo(Glu-His-D-Phe-Ala-Dab)-NH2 (peptide)
peptide: Ac-[Nle]EH[dF]A[Dab]-NH2
modifications: lactam 2-6
SMILES: CCCC[C@H](NC(C)=O)C(=O)N[C@H]1CCC(=O)NCC[C@@H](C(N)=O)NC(=O)[C@H](C)NC(=O)[C@@H](Cc2ccccc2)NC(=O)[C@H](Cc2c[nH]cn2)NC1=O
- MC-1 EC50 (average; cAMP HBL): 44000 pM
- MC-1 Emax (average; cAMP HBL): 73%

Binder: Ac-[Nle][Dab]H[dF]R[Dap]W-NH2 (linker 2-6 via C(:O)‑(CH2)2‑C(:O)) [Ac-Nle-cyclo(Dab-His-D-Phe-Arg-Dap)-Trp-NH2 with bridge C(═O)-(CH2)2-C(═O)]
- MC-1 EC50 (average; cAMP HBL): 6 pM
- MC-1 Emax (average; cAMP HBL): 78%

B10: Ac-Nle-cyclo(Asp-His-D-Phe-Arg-Dap)-Trp-NH2 (peptide)
peptide: Ac-[Nle]DH[dF]R[Dap]W-NH2
modifications: lactam 2-6
SMILES: CCCC[C@H](NC(C)=O)C(=O)N[C@H]1CC(=O)NC[C@@H](C(=O)N[C@@H](Cc2c[nH]c3ccccc23)C(N)=O)NC(=O)[C@H](CCCNC(=N)N)NC(=O)[C@@H](Cc2ccccc2)NC(=O)[C@H](Cc2c[nH]cn2)NC1=O
- MC-1 EC50 (average; cAMP HBL): 195 pM
- MC-1 Emax (average; cAMP HBL): 88%

B11: Ac-Nle-cyclo(Glu-His-D-Phe-Arg-Dab)-Ala-NH2 (peptide)
peptide: Ac-[Nle]EH[dF]R[Dab]A-NH2
modifications: lactam 2-6
SMILES: CCCC[C@H](NC(C)=O)C(=O)N[C@H]1CCC(=O)NCC[C@@H](C(=O)N[C@@H](C)C(N)=O)NC(=O)[C@H](CCCNC(=N)N)NC(=O)[C@@H](Cc2ccccc2)NC(=O)[C@H](Cc2c[nH]cn2)NC1=O
- MC-1 EC50 (average; cAMP HBL): 8 pM
- MC-1 Emax (average; cAMP HBL): 97%

Binder: Ac-[Nle][Dap]H[dF]R[Dab]W-NH2 (linker 2-6 via C(:O)‑(CH2)2‑C(:O)) [Ac-Nle-cyclo(Dap-His-D-Phe-Arg-Dab)-Trp-NH2 with bridge C(═O)-(CH2)2-C(═O)]
- MC-1 EC50 (average; cAMP HBL): 16 pM
- MC-1 Emax (average; cAMP HBL): 85%

B12: Ac-Nle-cyclo(Glu-His-D-Phe-Arg-Dab)-NH2 (peptide)
peptide: Ac-[Nle]EH[dF]R[Dab]-NH2
modifications: lactam 2-6
SMILES: CCCC[C@H](NC(C)=O)C(=O)N[C@H]1CCC(=O)NCC[C@@H](C(N)=O)NC(=O)[C@H](CCCNC(=N)N)NC(=O)[C@@H](Cc2ccccc2)NC(=O)[C@H](Cc2c[nH]cn2)NC1=O
- MC-1 EC50 (average; cAMP HBL): 320 pM
- MC-1 Emax (average; cAMP HBL): 85%

Binder: Ac-[Nle]EH[dF]R[Dab][dW]-NH2 (lactam 2-6) [Ac-Nle-cyclo(Glu-His-D-Phe-Arg-Dab)-D-Trp-NH2]
- MC-1 Emax (average; cAMP HBL): 93%

Binder: Ac-[Nle][Dab]H[dF]R[Dab]W-NH2 (linker 2-6 via C(:O)‑(CH2)2‑C(:O)) [Ac-Nle-cyclo(Dab-His-D-Phe-Arg-Dab)-Trp-NH2 with bridge C(═O)-(CH2)2-C(═O)]
- MC-1 Emax (average; cAMP HBL): 92%

Binder: Ac-[Nle]EA[dF]R[Dab]W-NH2 (lactam 2-6) [Ac-Nle-cyclo(Glu-Ala-D-Phe-Arg-Dab)-Trp-NH2]
- MC-1 Emax (average; cAMP HBL): 86%

The remaining lines, values ahead:

- MC-1 EC50 (average; cAMP HBL): 1000 pM
- MC-1 Emax (average; cAMP HBL): 97%
Binder: Ac-[Nle]E[Orn][dPhe(3,4-F)]R[Dab]-NH2 (lactam 2-6) [Ac-Nle-cyclo(Glu-Orn-D-Phe(3,4-F)-Arg-Dab)-NH2]

- MC-1 Emax (average; cAMP HBL): 72%
Binder: Ac-[Nle]EH[dF]R[Dab][1Nal]-NH2 (lactam 2-6) [Ac-Nle-cyclo(Glu-His-D-Phe-Arg-Dab)-Nal 1-NH2]

- MC-1 EC50 (average; cAMP HBL): 107 pM
- MC-1 Emax (average; cAMP HBL): 81%
Binder: Ac-[Nle]EH[dF]R[Dap]W-OH (lactam 2-6) [Ac-Nle-cyclo(Glu-His-D-Phe-Arg-Dap)-Trp-OH]

- MC-1 Emax (average; cAMP HBL): 79%
B1: Ac-Nle-cyclo(Glu-His-D-Phe-Arg-Dab)-Trp-OH (peptide)
peptide: Ac-[Nle]EH[dF]R[Dab]W-OH
modifications: lactam 2-6
SMILES: CCCC[C@H](NC(C)=O)C(=O)N[C@H]1CCC(=O)NCC[C@@H](C(=O)N[C@@H](Cc2c[nH]c3ccccc23)C(=O)O)NC(=O)[C@H](CCCNC(=N)N)NC(=O)[C@@H](Cc2ccccc2)NC(=O)[C@H](Cc2c[nH]cn2)NC1=O

- MC-1 Emax (average; cAMP HBL): 51%
B2: Ac-Nle-cyclo(Glu-His-D-Phe-Dab)-NH2 (peptide)
peptide: Ac-[Nle]EH[dF][Dab]-NH2
modifications: lactam 2-5
SMILES: CCCC[C@H](NC(C)=O)C(=O)N[C@H]1CCC(=O)NCC[C@@H](C(N)=O)NC(=O)[C@@H](Cc2ccccc2)NC(=O)[C@H](Cc2c[nH]cn2)NC1=O

- MC-1 Emax (average; cAMP HBL): 102%
Binder: Ac-[Nle]EP[dF]R[Dab]-NH2 (lactam 2-6) [Ac-Nle-cyclo(Glu-Pro-D-Phe-Arg-Dab)-NH2]

- MC-1 EC50 (average; cAMP HBL): 180 pM
- MC-1 Emax (average; cAMP HBL): 97%
B5: Ac-Nle-cyclo(Glu-Pro-D-Phe-Arg-Dab)-Trp-NH2 (peptide)
peptide: Ac-[Nle]EP[dF]R[Dab]W-NH2
modifications: lactam 2-6
SMILES: CCCC[C@H](NC(C)=O)C(=O)N[C@H]1CCC(=O)NCC[C@@H](C(=O)N[C@@H](Cc2c[nH]c3ccccc23)C(N)=O)NC(=O)[C@H](CCCNC(=N)N)NC(=O)[C@@H](Cc2ccccc2)NC(=O)[C@@H]2CCCN2C1=O

- MC-1 EC50 (average; cAMP HBL): 320 pM
- MC-1 Emax (average; cAMP HBL): 85%
B6: Ac-Nle-cyclo(Glu-His-D-Phe-Arg-Dab)-NH2 (SEQ ID NO: 47) (peptide)
peptide: Ac-[Nle]EH[dF]R[Dab]-NH2
modifications: lactam 2-6
SMILES: CCCC[C@H](NC(C)=O)C(=O)N[C@H]1CCC(=O)NCC[C@@H](C(N)=O)NC(=O)[C@H](CCCNC(=N)N)NC(=O)[C@@H](Cc2ccccc2)NC(=O)[C@H](Cc2c[nH]cn2)NC1=O

- MC-1 EC50 (average; cAMP HBL): 76 pM
- MC-1 Emax (average; cAMP HBL): 96%
B7: Ac-Nle-cyclo(Glu-Orn-D-Phe(4-Me)-Arg-Dab)-NH2 (peptide)
peptide: Ac-[Nle]E[Orn][dPhe(4-Me)]R[Dab]-NH2
modifications: lactam 2-6
SMILES: CCCC[C@H](NC(C)=O)C(=O)N[C@H]1CCC(=O)NCC[C@@H](C(N)=O)NC(=O)[C@H](CCCNC(=N)N)NC(=O)[C@@H](Cc2ccc(C)cc2)NC(=O)[C@H](CCCN)NC1=O

- MC-1 Emax (average; cAMP HBL): 83%
Binder: Ac-[Nle]EH[dF]R[Dab][2Nal]-NH2 (lactam 2-6) [Ac-Nle-cyclo(Glu-His-D-Phe-Arg-Dab)-Nal 2-NH2]

- MC-1 Emax (average; cAMP HBL): 109%
Binder: Ac-[Nle]E[Orn][dF]R[Dab]W-NH2 (lactam 2-6) [Ac-Nle-cyclo(Glu-Orn-D-Phe-Arg-Dab)-Trp-NH2]

- MC-1 Emax (average; cAMP HBL): 95%
Binder: Ac-[Nle]EH[dF]R[Dab]W-NH2 (lactam 2-6) [Ac-Nle-cyclo(Glu-His-D-Phe-Arg-Dab)-Trp-NH2]

- MC-1 EC50 (average; cAMP HBL): 120 pM
- MC-1 Emax (average; cAMP HBL): 99%
Binder: Ac-[Nle]E[Orn][dPhe(4-OMe)]R[Dab]-NH2 (lactam 2-6) [Ac-Nle-cyclo(Glu-Orn-D-Phe(4-OMe)-Arg-Dab)-NH2]

- MC-1 EC50 (average; cAMP HBL): 4000 pM
- MC-1 Emax (average; cAMP HBL): 59%
B13: Ac-Nle-cyclo(Glu-His-D-Phe-Gly-Dab)-Trp-NH2 (peptide)
peptide: Ac-[Nle]EH[dF]G[Dab]W-NH2
modifications: lactam 2-6
SMILES: CCCC[C@H](NC(C)=O)C(=O)N[C@H]1CCC(=O)NCC[C@@H](C(=O)N[C@@H](Cc2c[nH]c3ccccc23)C(N)=O)NC(=O)CNC(=O)[C@@H](Cc2ccccc2)NC(=O)[C@H](Cc2c[nH]cn2)NC1=O

- MC-1 Emax (average; cAMP HBL): 69%
Binder: Ac-[Nle]EH[dF]R[Dab][d2Nal]-NH2 (lactam 2-6) [Ac-Nle-cyclo(Glu-His-D-Phe-Arg-Dab)-Nal 2-NH2 (SEQ ID NO: 14)]

- MC-1 Emax (average; cAMP HBL): 108%
Binder: Ac-[Nle]EK[dF]R[Dab]W-NH2 (lactam 2-6) [Ac-Nle-cyclo(Glu-Lys-D-Phe-Arg-Dab)-Trp-NH2]

- MC-1 Emax (average; cAMP HBL): 91%
Binder: Ac-[Nle]EH[dF]R[Dap]W-NH2 (lactam 2-6) [Ac-Nle-cyclo(Glu-His-D-Phe-Arg-Dap)-Trp-NH2]
